This is an account of results in article PMC2824085.

Assay [1] deals with Man9GlcNAc2 glycopeptide isolated from soybean agglutinin (soybean). Briefly: SPR; BiaCore 3000, CM5 chip; SBA or its glycopeptide amine-coupled, monomeric CRD of DC-SIGN flowed over; steady state, simple saturation model with linear background; 10 mM Hepes, 150 mM NaCl, 5 mM CaCl2, 0.005% P20, pH 7.4, 25 °C.
Assay [2] has as its target monomeric carbohydrate-recognition domain (CRD) from DC-SIGN (UniProt Q9NNX6). Briefly: SPR; BiaCore 3000, CM5 chip; CRD of DC-SIGN immobilised, glycopeptide from SBA in the fluid phase; steady state; 10 mM Hepes, 150 mM NaCl, 5 mM CaCl2, 0.005% P20, pH 7.4, 25 °C. A general note: In SPR one partner is held on a chip, and binding of the other changes the refractive index at the surface.

The target is the same in assay [3]. Briefly: radioligand binding; competition: CRD of DC-SIGN immobilised on polystyrene wells, 125I-labeled mannose-BSA as reporter ligand, competing ligand titrated; KI = concentration for 50% inhibition.
Assay [4] addresses monomeric carbohydrate-recognition domain (CRD) of rat macrophage galactose lectin (MGL) (rat) (UniProt P49301). Put plainly: radioligand binding; competition: CRD or ECD of MGL coated on polystyrene wells, 125I-labeled Gal-BSA as reporter ligand, competing ligand titrated; KI = concentration for 50% inhibition.
In assay [5] the target is trimeric extracellular domain (ECD) of rat macrophage galactose lectin (MGL) (rat) (UniProt P49301). The assay is described as above.
Sequence of trimeric extracellular domain (ECD) of rat macrophage galactose lectin (MGL) (rat) (P49301 59-306, tags left off): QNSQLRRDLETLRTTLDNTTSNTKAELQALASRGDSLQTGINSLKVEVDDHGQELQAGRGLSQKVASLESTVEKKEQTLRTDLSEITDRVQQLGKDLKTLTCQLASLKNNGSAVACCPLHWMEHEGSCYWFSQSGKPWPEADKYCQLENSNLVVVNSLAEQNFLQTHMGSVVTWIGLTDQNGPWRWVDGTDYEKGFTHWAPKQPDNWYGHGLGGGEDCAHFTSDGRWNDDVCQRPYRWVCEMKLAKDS

Sequence of monomeric carbohydrate-recognition domain (CRD) of rat macrophage galactose lectin (MGL) (rat) (P49301 165-306): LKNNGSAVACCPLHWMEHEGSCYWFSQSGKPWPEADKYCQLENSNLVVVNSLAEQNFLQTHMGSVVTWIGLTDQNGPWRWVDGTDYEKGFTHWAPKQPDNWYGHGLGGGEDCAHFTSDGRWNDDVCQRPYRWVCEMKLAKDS
Sequence of monomeric carbohydrate-recognition domain (CRD) from DC-SIGN (Q9NNX6 250-404): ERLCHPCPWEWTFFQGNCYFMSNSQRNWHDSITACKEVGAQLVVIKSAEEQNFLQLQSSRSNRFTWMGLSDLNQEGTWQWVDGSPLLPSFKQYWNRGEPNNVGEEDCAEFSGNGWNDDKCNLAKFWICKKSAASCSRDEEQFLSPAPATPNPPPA

For the substance “monomeric carbohydrate-recognition domain (CRD) from DC-SIGN (from UniProt Q9NNX6 250-404) (domain or fragment)”, the fold lower affinity than for intact SBA in assay [1] came to 15 fold.

“Man9GlcNAc2 glycopeptide isolated from soybean agglutinin”: the Kd (commonly the concentration at which binding is half-saturated) in assay [2] worked out at 76 µM. The Ki (commonly the equilibrium dissociation constant of an inhibitor or competing ligand from its target) in assay [3] came to 68 µM.

For the substance “desialylated tri-antennary glycopeptide isolated from fetuin”, the Ki in assay [4] worked out at 260 µM; in assay [5], 160 µM.

For “asialo-orosomucoid derived from human blood (from UniProt P02763 19-201) (natural protein)”, the Ki was found to be 0.12 µM in assay [4] and 0.18 µM in assay [5].

For “asialo-orosomucoid OR-5 (five glycosylation sites, expressed in Chinese hamster ovary cells) (from UniProt P02763 19-201) (natural protein)”, the inhibition constant (Ki) in assay [4] was 1.4 µM; in assay [5], 0.65 µM.
